Earlier results on one substance are cited in PMC9776395.

By pKa is commonly meant the pH at which an ionisable group is half protonated.

The target of the series is His193 (UniProt position 193, WVLGEHGDSSV). Briefly: kinetics. The following applies: Enzyme-NADH complex binding pyruvate (pyruvate reduction direction).

As for “L-lactate dehydrogenase A chain (LDHA, M subunit, LDH5 homotetramer) (Homo sapiens)”, the pKa is reported as 7.31.
